Laboratory results taken from patent publication US8357523B2, “Beta-glucosidase variant enzymes and related polynucleotides” (Codexis, Inc., priority 2009, dated 2013).

Test: High throughput cellobiose assay: fold improvement in cellobiase activity of CelA variants over a control enzyme (Tables 2A-2D, 3, 5, 6, 7)
Format: biochemical
Details: 3.3 g/l cellobiose, 50° C. and pH 6.5; compared to native CelA (SEQ ID NO: 4)

B1: 33 (protein)
chain: STAIAQEGAAPAAILHPEKWPRPATQRLIDPAVEKRVDALLKQLSVEEKVGQVIQGDIGTITPEDLRKYPLGSILAGGNSGPNGDDRAPPKEWLDLADAFYRVSLEKRPGHTPIPVLFGIDAVHGHGNIGSATIFPHNIALGATHDPELLRRIGEVTAREMAATGIDWTFAPALSVVRDDRWGRTYEGFSEDPEIVAAYSAAIVEGVQGKFGSKDFMAPGRIVASAKHFLADGGTDQGRDQGDARISEDELIRIHNAGYPPAIDAGVLTVMASFSSWQGIKHHGHKQLLTDVLKGQMGFNGFIVGDWNAHDQVPGCTKFNCPTSLIAGLDMYMAADSWKQLYENTLAQVKDGTIPMARLDDAVRRILRVKVLAGLFEKPAPKDRPGLPGLETLGSPEHRAVGREAVRKSLVLLKNDKGTLPLSPKARVLVAGDGADNIGKQSGGWTISWQGTGNRNDEFPGATSILGGIRDAVADAGGSVEFDVAGQYKTKPDVAIVVFGEEPYAEFQGDVETLEYQPDQKQDLALLKKLKDQGIPVVAVFLSGRPMWVNPELNASDAFVAAWLPGTEGGGVADVLFTDKAGKVQHDFAGKLSYSWPRTAAQTTVNRGDADYNPLFAYGYGLTYKDKSKVGTLPEESGVPAEARQNAGIYFRAGALRLPGRFL
With B1 the “Fold improvement over wildtype CelA” value was “+ (+ = 1.1 to 2.0 fold improvement over native CelA (SEQ ID NO: 4))”.

B2: 35 (protein)
chain: STAIAQEGAAPAAILHPEKWPRPATQRLIDPAVEKRVDALLKQLSVEEKVGQVIQGDIGTITPEDLRKYPLGSILAGGNSGPNGDDRAPPKEWLDLADAFYRVSLEKRPGHTPIPVLFGIDAVHGHGNIGSATIFPHNIALGATHDPELLRRIGEVTAVEMAATGIDWTFAPALSVVRDDRWGRTYEGFSEDPEIVAAYSAKIVEGVQGKFGSKDFMAPGRIVASAKHFLADGGTDQGRDQGDARISEDELIRIHNAGYPPAIDAGVLTVMASFSSWQGIKHHGHKQLLTDVLKGQMGFNGFIVGDWNAHDQVPGCTKFNCPTSLIAGLDMYMAADSWKQLYENTLAQVKDGTIPMARLDDAVRRILRVKVLAGLFEKPAPKDRPGLPGLETLGSPEHRAVGREAVRKSLVLLKNDKGTLPLSPKARVLVAGDGADNIGKQSGGWTISWQGTGNRNDEFPGATSILGGIRDAVADAGGSVEFDVAGQYKTKPDVAIVVFGEEPYAEFQGDVETLEYQPDQKQDLALLKKLKDQGIPVVAVFLSGRPMWVNPELNASDAFVAAWLPGTEGGGVADVLFTDKAGKVQHDFAGKLSYSWPRTAAQTTVNRGDADYNPLFAYGYGLTYKDKSKVGTLPEESGVPAEARQNAGIYFRAGALRLPGRFL
For B2, the “Fold improvement over wildtype CelA” value was “+ (+ = 1.1 to 2.0 fold improvement over native CelA (SEQ ID NO: 4))”.

B3: 36 (protein)
chain: STAIAQEGAAPAAILHPEKWPRPATQRLIDPAVEKRVDALLKQLSVEEKVGQVIQGDIGTITPEDLRKYPLGSILAGGNSGPNGDDRAPPKEWLDLADAFYRVSLEKRPGHTPIPVLFGIDAVHGHGNIGSATIFPHNIALGMTHDPELLRRIGEVTAVEMAATGIDWTFAPALSVVRDDRWGRTYEGFSEDPEIVAAYSAAIVEGVQGKFGSKDFMAPGRIVASAKHFLADGGTDQGRDQGDARISEDELIRIHNAGYPPAIDAGVLTVMASFSSWQGIKHHGHKQLLTDVLKGQMGFNGFIVGDWNAHDQVPGCTKFNCPTSLIAGLDMYMAADSWKQLYENTLAQVKDGTIPMARLDDAVRRILRVKVLAGLFEKPAPKDRPGLPGLETLGSPEHRAVGREAVRKSLVLLKNDKGTLPLSPKARVLVAGDGADNIGKQSGGWTISWQGTGNRNDEFPGATSILGGIRDAVADAGGSVEFDVAGQYKTKPDVAIVVFGEEPYAEFQGDVETLEYQPDQKQDLALLKKLKDQGIPVVAVFLSGRPMWVNPELNASDAFVAAWLPGTEGGGVADVLFTDKAGKVQHDFAGKLSYSWPRTAAQTTVNRGDADYNPLFAYGYGLTYKDKSKVGTLPEESGVPAEARQNAGIYFRAGALRLPGRFL
In the case of B3, the “Fold improvement over wildtype CelA” value is reported as “+ (+ = 1.1 to 2.0 fold improvement over native CelA (SEQ ID NO: 4))”.

B4: 40 (protein)
chain: STAIAQEGAAPAAILHPEKWPRPATQRLIDPAVEKRVDALLKQLSVEEKVGQVIQGDIGTITPEDLRKYPLGSILAGGNSGPNGDDRAPPKEWLDLADAFYRVSLEKRPGHTPIPVLFGIDAVHGHGNIGSATIFPHNIALGATHDPELLRRIGEVTAVEMAATGIDWTFAPCLSVVRDDRWGRTYEGFSEDPEIVAAYSAAIVEGVQGKFGSKDFMAPGRIVASAKHFLADGGTDQGRDQGDARISEDELIRIHNAGYPPAIDAGVLTVMASFSSWQGIKHHGHKQLLTDVLKGQMGFNGFIVGDWNAHDQVPGCTKFNCPTSLIAGLDMYMAADSWKQLYENTLAQVKDGTIPMARLDDAVRRILRVKVLAGLFEKPAPKDRPGLPGLETLGSPEHRAVGREAVRKSLVLLKNDKGTLPLSPKARVLVAGDGADNIGKQSGGWTISWQGTGNRNDEFPGATSILGGIRDAVADAGGSVEFDVAGQYKTKPDVAIVVFGEEPYAEFQGDVETLEYQPDQKQDLALLKKLKDQGIPVVAVFLSGRPMWVNPELNASDAFVAAWLPGTEGGGVADVLFTDKAGKVQHDFAGKLSYSWPRTAAQTTVNRGDADYNPLFAYGYGLTYKDKSKVGTLPEESGVPAEARQNAGIYFRAGALRLPGRFL
With B4 the “Fold improvement over wildtype CelA” value was “++ (++ = 2.1 to 2.6 fold improvement over native CelA (SEQ ID NO: 4))”.

B5: 37 (protein)
chain: STAIAQEGAAPAAILHPEKWPRPATQRLIDPAVEKRVDALLKQLSVEEKVGQVIQGDIGTITPEDLRKYPLGSILAGGNSGPNGDDRAPPKEWLDLADAFYRVSLEKRPGHTPIPVLFGIDAVHGHGNIGSATIFPHNIALGATHDPELLRRIGEVTAVEMAATGIDWTFAPALSVVRDDRWGRTYEGFSEDPELVAAYSAAIVEGVQGKFGSKDFMAPGRIVASAKHFLADGGTDQGRDQGDARISEDELIRIHNAGYPPAIDAGVLTVMASFSSWQGIKHHGHKQLLTDVLKGQMGFNGFIVGDWNAHDQVPGCTKFNCPTSLIAGLDMYMAADSWKQLYENTLAQVKDGTIPMARLDDAVRRILRVKVLAGLFEKPAPKDRPGLPGLETLGSPEHRAVGREAVRKSLVLLKNDKGTLPLSPKARVLVAGDGADNIGKQSGGWTISWQGTGNRNDEFPGATSILGGIRDAVADAGGSVEFDVAGQYKTKPDVAIVVFGEEPYAEFQGDVETLEYQPDQKQDLALLKKLKDQGIPVVAVFLSGRPMWVNPELNASDAFVAAWLPGTEGGGVADVLFTDKAGKVQHDFAGKLSYSWPRTAAQTTVNRGDADYNPLFAYGYGLTYKDKSKVGTLPEESGVPAEARQNAGIYFRAGALRLPGRFL
For B5, the “Fold improvement over wildtype CelA” value was “+ (+ = 1.1 to 2.0 fold improvement over native CelA (SEQ ID NO: 4))”.

B6: 38 (protein)
chain: STAIAQEGAAPAAILHPEKWPRPATQRLIDPAVEKRVDALLKQLSVEEKVGQVIQGDIGTITPEDLRKYPLGSILAGGNSGPNGDDRAPPKEWLDLADAFYRVSLEKRPGHTPIPVLFGIDAVHGHGNIGSATIFPHNIALGATHDPELLRRIGEVTAVEMAATGIDWTFAPSLSVVRDDRWGRTYEGFSEDPEIVAAYSAAIVEGVQGKFGSKDFMAPGRIVASAKHFLADGGTDQGRDQGDARISEDELIRIHNAGYPPAIDAGVLTVMASFSSWQGIKHHGHKQLLTDVLKGQMGFNGFIVGDWNAHDQVPGCTKFNCPTSLIAGLDMYMAADSWKQLYENTLAQVKDGTIPMARLDDAVRRILRVKVLAGLFEKPAPKDRPGLPGLETLGSPEHRAVGREAVRKSLVLLKNDKGTLPLSPKARVLVAGDGADNIGKQSGGWTISWQGTGNRNDEFPGATSILGGIRDAVADAGGSVEFDVAGQYKTKPDVAIVVFGEEPYAEFQGDVETLEYQPDQKQDLALLKKLKDQGIPVVAVFLSGRPMWVNPELNASDAFVAAWLPGTEGGGVADVLFTDKAGKVQHDFAGKLSYSWPRTAAQTTVNRGDADYNPLFAYGYGLTYKDKSKVGTLPEESGVPAEARQNAGIYFRAGALRLPGRFL
In the case of B6, the “Fold improvement over wildtype CelA” value is reported as “+ (+ = 1.1 to 2.0 fold improvement over native CelA (SEQ ID NO: 4))”.

B7: 34 (protein)
chain: STAIAQEGAAPAAILHPEKWPRPATQRLIDPAVEKRVDALLKQLSVEEKVGQVIQGDIGTITPEDLRKYPLGSILAGGNSGPNGDDRAPPKEWLDLADAFYRVSLEKRPGHTPIPVLFGIDAVHGHGNIGSATIFPHNIALGATHDPELLRRIGEVTAVEMAATGIDWTFAPALSVVRDDRWGRTYEGFSEDPEIVAAYSAAIVEGVQGKFGSKDFMAPGRSVASAKHFLADGGTDQGRDQGDARISEDELIRIHNAGYPPAIDAGVLTVMASFSSWQGIKHHGHKQLLTDVLKGQMGFNGFIVGDWNAHDQVPGCTKFNCPTSLIAGLDMYMAADSWKQLYENTLAQVKDGTIPMARLDDAVRRILRVKVLAGLFEKPAPKDRPGLPGLETLGSPEHRAVGREAVRKSLVLLKNDKGTLPLSPKARVLVAGDGADNIGKQSGGWTISWQGTGNRNDEFPGATSILGGIRDAVADAGGSVEFDVAGQYKTKPDVAIVVFGEEPYAEFQGDVETLEYQPDQKQDLALLKKLKDQGIPVVAVFLSGRPMWVNPELNASDAFVAAWLPGTEGGGVADVLFTDKAGKVQHDFAGKLSYSWPRTAAQTTVNRGDADYNPLFAYGYGLTYKDKSKVGTLPEESGVPAEARQNAGIYFRAGALRLPGRFL
For B7, the “Fold improvement over wildtype CelA” value was “+ (+ = 1.1 to 2.0 fold improvement over native CelA (SEQ ID NO: 4))”.

B8: 39 (protein)
chain: STAIAQEGAAPAAILHPEKWPRPATQRLIDPAVEKRVDALLKQLSVEEKVGQVIQGDIGTITPEDLRKYPLGSILAGGNSGPNGDDRAPPKEWLDLADAFYRVSLEKRPGHTPIPVLFGIDAVHGHGNIGSATIFPHNIALGQTHDPELLRRIGEVTAVEMAATGIDWTFAPALSVVRDDRWGRTYEGFSEDPEIVAAYSAAIVEGVQGKFGSKDFMAPGRIVASAKHFLADGGTDQGRDQGDARISEDELIRIHNAGYPPAIDAGVLTVMASFSSWQGIKHHGHKQLLTDVLKGQMGFNGFIVGDWNAHDQVPGCTKFNCPTSLIAGLDMYMAADSWKQLYENTLAQVKDGTIPMARLDDAVRRILRVKVLAGLFEKPAPKDRPGLPGLETLGSPEHRAVGREAVRKSLVLLKNDKGTLPLSPKARVLVAGDGADNIGKQSGGWTISWQGTGNRNDEFPGATSILGGIRDAVADAGGSVEFDVAGQYKTKPDVAIVVFGEEPYAEFQGDVETLEYQPDQKQDLALLKKLKDQGIPVVAVFLSGRPMWVNPELNASDAFVAAWLPGTEGGGVADVLFTDKAGKVQHDFAGKLSYSWPRTAAQTTVNRGDADYNPLFAYGYGLTYKDKSKVGTLPEESGVPAEARQNAGIYFRAGALRLPGRFL
In the case of B8, the “Fold improvement over wildtype CelA” value is reported as “+ (+ = 1.1 to 2.0 fold improvement over native CelA (SEQ ID NO: 4))”.
